Tested on: Escherichia coli TOP10
Test: shrunken log2 fold change of peptide-encoding DNA abundance (4.5 h post-induction vs induction); higher = less antimicrobial activity (less host growth inhibition)
Details: time post-induction: 4.5 h; library: site-saturation at positions 5, 18, 19, 20
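Note: peptides expressed intracellularly from a pBAD plasmid library in pooled LB shake-flask culture, induced with 0.3% L-arabinose, DNA abundance read by NGS, three biological replicates, DESeq2 with apeglm shrinkage.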

Sequence | shrunken log2 fold change
RRIRIRPPRLPRPRPRPKCLPRP | -0.0748
RRIRIRPPRLPRPRPRPKDFPRP | -0.457
RRIRIRPPRLPRPRPRPKDHPRP | -0.222
RRIRIRPPRLPRPRPRPKDSPRP | -0.273
RRIRIRPPRLPRPRPRPKEAPRP | 0.0518
RRIRIRPPRLPRPRPRPKEPPRP | 0.0805
RRIRIRPPRLPRPRPRPKERPRP | -0.00236
RRIRIRPPRLPRPRPRPKGMPRP | -0.214
RRIRIRPPRLPRPRPRPKGRPRP | 0.182
RRIRIRPPRLPRPRPRPKHIPRP | -0.765
RRIRIRPPRLPRPRPRPKILPRP | -0.0568
RRIRIRPPRLPRPRPRPKLAPRP | -0.117
RRIRIRPPRLPRPRPRPKMEPRP | -0.103
RRIRIRPPRLPRPRPRPKNFPRP | -0.0927
RRIRIRPPRLPRPRPRPKNIPRP | -0.733
RRIRIRPPRLPRPRPRPKNSPRP | -0.503
RRIRIRPPRLPRPRPRPKPIPRP | -0.0437
RRIRIRPPRLPRPRPRPKPMPRP | -0.0736
RRIRIRPPRLPRPRPRPKPWPRP | 0.192
RRIRIRPPRLPRPRPRPKRKPRP | -0.105
RRIRIRPPRLPRPRPRPKTDPRP | -0.292
RRIRIRPPRLPRPRPRPKTHPRP | -0.203
RRIRIRPPRLPRPRPRPKTLPRP | -0.229
RRIRIRPPRLPRPRPRPKTRPRP | -0.117
RRIRIRPPRLPRPRPRPKVGPRP | 0.164

Sequence | shrunken log2 fold change
RRIRIRPPRLPRPRPRPKVTPRP | -0.386
RRIRIRPPRLPRPRPRPKWVPRP | -0.098
RRIRIRPPRLPRPRPRPKYGPRP | -0.284
RRIRIRPPRLPRPRPRPLADPRP | -0.0519
RRIRIRPPRLPRPRPRPLCDPRP | -0.655
RRIRIRPPRLPRPRPRPLCTPRP | -0.407
RRIRIRPPRLPRPRPRPLEPPRP | 0.111
RRIRIRPPRLPRPRPRPLFDPRP | -0.803
RRIRIRPPRLPRPRPRPLHFPRP | -0.511
RRIRIRPPRLPRPRPRPLHHPRP | -0.148
RRIRIRPPRLPRPRPRPLHRPRP | -0.307
RRIRIRPPRLPRPRPRPLIDPRP | -0.42
RRIRIRPPRLPRPRPRPLIIPRP | -0.652
RRIRIRPPRLPRPRPRPLIYPRP | -0.255
RRIRIRPPRLPRPRPRPLLQPRP | -0.163
RRIRIRPPRLPRPRPRPLNHPRP | -0.458
RRIRIRPPRLPRPRPRPLNPPRP | -0.428
RRIRIRPPRLPRPRPRPLPAPRP | 0.041
RRIRIRPPRLPRPRPRPLRAPRP | 0.367
RRIRIRPPRLPRPRPRPLTKPRP | -0.94
RRIRIRPPRLPRPRPRPLVHPRP | -0.266
RRIRIRPPRLPRPRPRPLWVPRP | 0.0248
RRIRIRPPRLPRPRPRPMACPRP | -0.321
RRIRIRPPRLPRPRPRPMAWPRP | 0.0272
RRIRIRPPRLPRPRPRPMCGPRP | -0.0603

Sequence | shrunken log2 fold change
RRIRIRPPRLPRPRPRPMDIPRP | -0.911
RRIRIRPPRLPRPRPRPMDVPRP | -0.361
RRIRIRPPRLPRPRPRPMEHPRP | -0.199
RRIRIRPPRLPRPRPRPMFKPRP | -0.286
RRIRIRPPRLPRPRPRPMFSPRP | -0.433
RRIRIRPPRLPRPRPRPMGDPRP | -0.114
RRIRIRPPRLPRPRPRPMGEPRP | -0.0442
RRIRIRPPRLPRPRPRPMHYPRP | -0.434
RRIRIRPPRLPRPRPRPMIQPRP | 0.102
RRIRIRPPRLPRPRPRPMISPRP | -0.00209
RRIRIRPPRLPRPRPRPMKFPRP | -0.387
RRIRIRPPRLPRPRPRPMKQPRP | -0.0367
RRIRIRPPRLPRPRPRPMKSPRP | -0.161
RRIRIRPPRLPRPRPRPMMEPRP | -0.599
RRIRIRPPRLPRPRPRPMMHPRP | -0.59
RRIRIRPPRLPRPRPRPMNAPRP | -0.0262
RRIRIRPPRLPRPRPRPMPGPRP | -0.172
RRIRIRPPRLPRPRPRPMPNPRP | -0.0781
RRIRIRPPRLPRPRPRPMPTPRP | 0.316
RRIRIRPPRLPRPRPRPMREPRP | 0.0761
RRIRIRPPRLPRPRPRPMTEPRP | 0.0149
RRIRIRPPRLPRPRPRPMTHPRP | -0.996
RRIRIRPPRLPRPRPRPMTVPRP | 0.0104
RRIRIRPPRLPRPRPRPMVDPRP | -0.0165
RRIRIRPPRLPRPRPRPMVKPRP | -0.0157
